Experimental data from PMC6631230, “Efficient Screening of Combinatorial Peptide Libraries by Spatially Ordered Beads Immobilized on Conventional Glass Slides” (High-Throughput, 2019).

Experiments:
mouse IgG = details: literature IgG-binding peptide listed in Table 3; read-out: KD (equilibrium dissociation constant), literature value; cited from earlier work
From the text: Table 3 Equilibrium dissociation constants (KD) for peptide mouse IgG interaction determined by SPR. | column: KD, µM

[1] = molecular target: polyclonal mouse IgG (mouse); experiment: SPR; antibody immobilised by amine coupling on an HC200 chip (Reichert SR7500DC); peptides flowed in HBS-EP (pH 7.4, 0.01 M HEPES, 0.15 M NaCl, 3 mM EDTA, 0.005% Tween 20); multiple kinetics mode

Molecule	Kd (mouse IgG)	Kd [1]
HFRRHL	26 µM	–
HWRGWV	10 µM	–
SHSGIFR [IgG BP 4]	–	60 µM
GIHPFGR [IgG BP 2]	–	50 µM
GRIHGPR [IgG BP 1]	–	14 µM
GEPFSIP [IgG BP 3]	–	20 µM
